Data: US20220073608A1

What was measured:
[1] = target: hSEMA4D ECD-His (His-tagged human SEMA4D protein extracellular domain, Met22-Arg734) (human) (UniProt Q92854); assay: ELISA, coated hSEMA4D ECD-His; Ab 13.3 nM
[2] = target: hSEMA4D ECD-His (His-tagged human SEMA4D protein extracellular domain, Met22-Arg734) (human) (UniProt Q92854); assay: ELISA, coated hSEMA4D ECD-His; Ab 0.533 nM
[3] = target: hSEMA4D ECD-His (His-tagged human SEMA4D protein extracellular domain, Met22-Arg734) (human) (UniProt Q92854); assay: ELISA, coated hSEMA4D ECD-His; Ab 0.107 nM
[4] = target: hSEMA4D ECD-His (His-tagged human SEMA4D protein extracellular domain, Met22-Arg734) (human) (UniProt Q92854); assay: ELISA, coated hSEMA4D ECD-His; Ab 2.67 nM
[5] = target: hSEMA4D ECD-His (His-tagged human SEMA4D protein extracellular domain, Met22-Arg734) (human) (UniProt Q92854); assay: ELISA, coated hSEMA4D ECD-His; Ab 0.00085 nM
[6] = target: hSEMA4D ECD-His (His-tagged human SEMA4D protein extracellular domain, Met22-Arg734) (human) (UniProt Q92854); assay: ELISA, coated hSEMA4D ECD-His; Ab 0.0427 nM
[7] = target: hSEMA4D ECD-His (His-tagged human SEMA4D protein extracellular domain, Met22-Arg734) (human) (UniProt Q92854); assay: ELISA, coated hSEMA4D ECD-His; Ab 0.267 nM
[8] = target: hSEMA4D ECD-His (His-tagged human SEMA4D protein extracellular domain, Met22-Arg734) (human) (UniProt Q92854); assay: ELISA, coated hSEMA4D ECD-His; Ab 0.000085 nM
[9] = target: hSEMA4D ECD-His (His-tagged human SEMA4D protein extracellular domain, Met22-Arg734) (human) (UniProt Q92854); assay: ELISA, coated hSEMA4D ECD-His; Ab 0.0533 nM
[10] = target: hSEMA4D ECD-His (His-tagged human SEMA4D protein extracellular domain, Met22-Arg734) (human) (UniProt Q92854); assay: ELISA, coated hSEMA4D ECD-His; Ab 1.33 nM
[11] = target: T1, human SEMA4D, full length, on CHO-K1 cells (CHO-K1 hSEMA4D) (human) (UniProt Q92854); assay: FACS, CHO-K1 hSEMA4D cells; Ab 66.7 nM
T1 sequence (looked up): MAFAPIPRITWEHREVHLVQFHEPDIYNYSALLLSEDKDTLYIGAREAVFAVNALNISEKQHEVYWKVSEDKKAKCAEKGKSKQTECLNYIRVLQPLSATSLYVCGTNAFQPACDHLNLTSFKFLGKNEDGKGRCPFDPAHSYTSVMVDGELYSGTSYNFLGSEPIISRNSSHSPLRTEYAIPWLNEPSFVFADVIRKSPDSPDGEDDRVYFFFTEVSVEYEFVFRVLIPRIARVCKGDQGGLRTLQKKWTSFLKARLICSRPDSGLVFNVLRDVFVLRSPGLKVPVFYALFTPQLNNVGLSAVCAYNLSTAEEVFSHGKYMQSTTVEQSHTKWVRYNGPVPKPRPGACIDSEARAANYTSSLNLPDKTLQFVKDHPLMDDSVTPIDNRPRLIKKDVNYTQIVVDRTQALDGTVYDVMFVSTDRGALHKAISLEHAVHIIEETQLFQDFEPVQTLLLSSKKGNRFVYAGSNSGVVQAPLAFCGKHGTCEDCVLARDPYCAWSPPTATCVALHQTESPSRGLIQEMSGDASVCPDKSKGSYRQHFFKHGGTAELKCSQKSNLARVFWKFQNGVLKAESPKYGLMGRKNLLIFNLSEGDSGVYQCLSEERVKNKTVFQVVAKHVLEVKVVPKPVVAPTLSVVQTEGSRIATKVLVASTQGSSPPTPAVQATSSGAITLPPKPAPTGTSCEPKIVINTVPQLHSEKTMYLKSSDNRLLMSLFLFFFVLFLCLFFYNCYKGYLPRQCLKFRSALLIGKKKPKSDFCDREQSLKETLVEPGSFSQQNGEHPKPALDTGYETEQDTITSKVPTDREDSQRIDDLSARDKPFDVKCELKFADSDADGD

[12] = target: hSEMA4D ECD-His (His-tagged human SEMA4D protein extracellular domain, Met22-Arg734) (human) (UniProt Q92854); assay: ELISA, coated hSEMA4D ECD-His; Ab 6.67 nM
[13] = target: hSEMA4D ECD-His (His-tagged human SEMA4D protein extracellular domain, Met22-Arg734) (human) (UniProt Q92854); assay: ELISA, coated hSEMA4D ECD-His; Ab 0.00213 nM
[14] = target: hSEMA4D ECD-His (His-tagged human SEMA4D protein extracellular domain, Met22-Arg734) (human) (UniProt Q92854); assay: ELISA, coated hSEMA4D ECD-His; Ab 0.0107 nM
[15] = target: hSEMA4D ECD-His (His-tagged human SEMA4D protein extracellular domain, Met22-Arg734) (human) (UniProt Q92854); assay: ELISA, coated hSEMA4D ECD-His; Ab 0.00427 nM
[16] = target: monkey SEMA4D, full length, on CHO-K1 cells (CHO-K1 cSEMA4D) (monkey); assay: FACS, CHO-K1 cSEMA4D cells; Ab 66.7 nM

OD450 nm [1] | OD450 nm [2] | OD450 nm [3] | OD450 nm [4] | OD450 nm [5] | OD450 nm [6] | OD450 nm [7] | OD450 nm [8] | OD450 nm [9] | OD450 nm [10] | MFI [11] | OD450 nm [12] | OD450 nm [13] | OD450 nm [14] | OD450 nm [15] | MFI [16] | Substance
0.0766 | 0.0748 | 0.0717 | 0.074 | 0.0781 | 0.0754 | – | – | – | – | – | – | – | – | – | – | Human IgG control (antibody)
– | – | – | – | – | – | 0.0791 | 0.0686 | 0.0805 | 0.264 | 214 | 0.533 | 0.0718 | 0.0814 | 0.0789 | 339 | Mouse IgG control (antibody)
